{"source": "patent US20210139548A1", "about": "(published 2021)", "binders": {"B1": {"name": "Compound 146 (peptide)", "peptide": "Isovaleryl-APEK([AEEA-AEEA-γGlu-C18 diacid])PEEEASPEELQRYYVSTRHYYNWLTRQRY-NH2", "SMILES": "CC(C)CC(=O)N[C@@H](C)C(=O)N1CCC[C@H]1C(=O)N[C@@H](CCC(=O)O)C(=O)N[C@@H](CCCCNC(=O)COCCOCCNC(=O)COCCOCCNC(=O)CC[C@H](NC(=O)CCCCCCCCCCCCCCCCC(=O)O)C(=O)O)C(=O)N1CCC[C@H]1C(=O)N[C@@H](CCC(=O)O)C(=O)N[C@@H](CCC(=O)O)C(=O)N[C@@H](CCC(=O)O)C(=O)N[C@@H](C)C(=O)N[C@@H](CO)C(=O)N1CCC[C@H]1C(=O)N[C@@H](CCC(=O)O)C(=O)N[C@@H](CCC(=O)O)C(=O)N[C@@H](CC(C)C)C(=O)N[C@@H](CCC(N)=O)C(=O)N[C@@H](CCCNC(=N)N)C(=O)N[C@@H](Cc1ccc(O)cc1)C(=O)N[C@@H](Cc1ccc(O)cc1)C(=O)N[C@H](C(=O)N[C@@H](CO)C(=O)N[C@H](C(=O)N[C@@H](CCCNC(=N)N)C(=O)N[C@@H](Cc1c[nH]cn1)C(=O)N[C@@H](Cc1ccc(O)cc1)C(=O)N[C@@H](Cc1ccc(O)cc1)C(=O)N[C@@H](CC(N)=O)C(=O)N[C@@H](Cc1c[nH]c2ccccc12)C(=O)N[C@@H](CC(C)C)C(=O)N[C@H](C(=O)N[C@@H](CCCNC(=N)N)C(=O)N[C@@H](CCC(N)=O)C(=O)N[C@@H](CCCNC(=N)N)C(=O)N[C@@H](Cc1ccc(O)cc1)C(N)=O)[C@@H](C)O)[C@@H](C)O)C(C)C"}, "B2": {"name": "Compound 152 (peptide)", "peptide": "Isovaleryl-APEK([AEEA-AEEA-γGlu-C18 diacid])AEEDASPEEIQRYYVSLRHYYNWLTRQRY-NH2", "SMILES": "CC[C@H](C)[C@H](NC(=O)[C@H](CCC(=O)O)NC(=O)[C@H](CCC(=O)O)NC(=O)[C@@H]1CCCN1C(=O)[C@H](CO)NC(=O)[C@H](C)NC(=O)[C@H](CC(=O)O)NC(=O)[C@H](CCC(=O)O)NC(=O)[C@H](CCC(=O)O)NC(=O)[C@H](C)NC(=O)[C@H](CCCCNC(=O)COCCOCCNC(=O)COCCOCCNC(=O)CC[C@H](NC(=O)CCCCCCCCCCCCCCCCC(=O)O)C(=O)O)NC(=O)[C@H](CCC(=O)O)NC(=O)[C@@H]1CCCN1C(=O)[C@H](C)NC(=O)CC(C)C)C(=O)N[C@@H](CCC(N)=O)C(=O)N[C@@H](CCCNC(=N)N)C(=O)N[C@@H](Cc1ccc(O)cc1)C(=O)N[C@@H](Cc1ccc(O)cc1)C(=O)N[C@H](C(=O)N[C@@H](CO)C(=O)N[C@@H](CC(C)C)C(=O)N[C@@H](CCCNC(=N)N)C(=O)N[C@@H](Cc1c[nH]cn1)C(=O)N[C@@H](Cc1ccc(O)cc1)C(=O)N[C@@H](Cc1ccc(O)cc1)C(=O)N[C@@H](CC(N)=O)C(=O)N[C@@H](Cc1c[nH]c2ccccc12)C(=O)N[C@@H](CC(C)C)C(=O)N[C@H](C(=O)N[C@@H](CCCNC(=N)N)C(=O)N[C@@H](CCC(N)=O)C(=O)N[C@@H](CCCNC(=N)N)C(=O)N[C@@H](Cc1ccc(O)cc1)C(N)=O)[C@@H](C)O)C(C)C"}, "B3": {"name": "Compound 147 (peptide)", "peptide": "Isovaleryl-APEK([AEEA-AEEA-γGlu-C18 diacid])PEEDASPEETQKYYVSLRHYYNWLTRQRY-NH2", "SMILES": "CC(C)CC(=O)N[C@@H](C)C(=O)N1CCC[C@H]1C(=O)N[C@@H](CCC(=O)O)C(=O)N[C@@H](CCCCNC(=O)COCCOCCNC(=O)COCCOCCNC(=O)CC[C@H](NC(=O)CCCCCCCCCCCCCCCCC(=O)O)C(=O)O)C(=O)N1CCC[C@H]1C(=O)N[C@@H](CCC(=O)O)C(=O)N[C@@H](CCC(=O)O)C(=O)N[C@@H](CC(=O)O)C(=O)N[C@@H](C)C(=O)N[C@@H](CO)C(=O)N1CCC[C@H]1C(=O)N[C@@H](CCC(=O)O)C(=O)N[C@@H](CCC(=O)O)C(=O)N[C@H](C(=O)N[C@@H](CCC(N)=O)C(=O)N[C@@H](CCCCN)C(=O)N[C@@H](Cc1ccc(O)cc1)C(=O)N[C@@H](Cc1ccc(O)cc1)C(=O)N[C@H](C(=O)N[C@@H](CO)C(=O)N[C@@H](CC(C)C)C(=O)N[C@@H](CCCNC(=N)N)C(=O)N[C@@H](Cc1c[nH]cn1)C(=O)N[C@@H](Cc1ccc(O)cc1)C(=O)N[C@@H](Cc1ccc(O)cc1)C(=O)N[C@@H](CC(N)=O)C(=O)N[C@@H](Cc1c[nH]c2ccccc12)C(=O)N[C@@H](CC(C)C)C(=O)N[C@H](C(=O)N[C@@H](CCCNC(=N)N)C(=O)N[C@@H](CCC(N)=O)C(=O)N[C@@H](CCCNC(=N)N)C(=O)N[C@@H](Cc1ccc(O)cc1)C(N)=O)[C@@H](C)O)C(C)C)[C@@H](C)O"}, "B4": {"name": "Compound 151 (peptide)", "peptide": "Isovaleryl-APEK([AEEA-AEEA-γGlu-C18 diacid])PEAEASPEELQRYYVSLRHYYNWLTRQRY-NH2", "SMILES": "CC(C)CC(=O)N[C@@H](C)C(=O)N1CCC[C@H]1C(=O)N[C@@H](CCC(=O)O)C(=O)N[C@@H](CCCCNC(=O)COCCOCCNC(=O)COCCOCCNC(=O)CC[C@H](NC(=O)CCCCCCCCCCCCCCCCC(=O)O)C(=O)O)C(=O)N1CCC[C@H]1C(=O)N[C@@H](CCC(=O)O)C(=O)N[C@@H](C)C(=O)N[C@@H](CCC(=O)O)C(=O)N[C@@H](C)C(=O)N[C@@H](CO)C(=O)N1CCC[C@H]1C(=O)N[C@@H](CCC(=O)O)C(=O)N[C@@H](CCC(=O)O)C(=O)N[C@@H](CC(C)C)C(=O)N[C@@H](CCC(N)=O)C(=O)N[C@@H](CCCNC(=N)N)C(=O)N[C@@H](Cc1ccc(O)cc1)C(=O)N[C@@H](Cc1ccc(O)cc1)C(=O)N[C@H](C(=O)N[C@@H](CO)C(=O)N[C@@H](CC(C)C)C(=O)N[C@@H](CCCNC(=N)N)C(=O)N[C@@H](Cc1c[nH]cn1)C(=O)N[C@@H](Cc1ccc(O)cc1)C(=O)N[C@@H](Cc1ccc(O)cc1)C(=O)N[C@@H](CC(N)=O)C(=O)N[C@@H](Cc1c[nH]c2ccccc12)C(=O)N[C@@H](CC(C)C)C(=O)N[C@H](C(=O)N[C@@H](CCCNC(=N)N)C(=O)N[C@@H](CCC(N)=O)C(=O)N[C@@H](CCCNC(=N)N)C(=O)N[C@@H](Cc1ccc(O)cc1)C(N)=O)[C@@H](C)O)C(C)C"}, "B5": {"name": "Compound 149 (peptide)", "peptide": "Isovaleryl-APEK([AEEA-AEEA-γGlu-C18 diacid])PEEAASPEELQRYYVELRHYYNWLTRQRY-NH2", "SMILES": "CC(C)CC(=O)N[C@@H](C)C(=O)N1CCC[C@H]1C(=O)N[C@@H](CCC(=O)O)C(=O)N[C@@H](CCCCNC(=O)COCCOCCNC(=O)COCCOCCNC(=O)CC[C@H](NC(=O)CCCCCCCCCCCCCCCCC(=O)O)C(=O)O)C(=O)N1CCC[C@H]1C(=O)N[C@@H](CCC(=O)O)C(=O)N[C@@H](CCC(=O)O)C(=O)N[C@@H](C)C(=O)N[C@@H](C)C(=O)N[C@@H](CO)C(=O)N1CCC[C@H]1C(=O)N[C@@H](CCC(=O)O)C(=O)N[C@@H](CCC(=O)O)C(=O)N[C@@H](CC(C)C)C(=O)N[C@@H](CCC(N)=O)C(=O)N[C@@H](CCCNC(=N)N)C(=O)N[C@@H](Cc1ccc(O)cc1)C(=O)N[C@@H](Cc1ccc(O)cc1)C(=O)N[C@H](C(=O)N[C@@H](CCC(=O)O)C(=O)N[C@@H](CC(C)C)C(=O)N[C@@H](CCCNC(=N)N)C(=O)N[C@@H](Cc1c[nH]cn1)C(=O)N[C@@H](Cc1ccc(O)cc1)C(=O)N[C@@H](Cc1ccc(O)cc1)C(=O)N[C@@H](CC(N)=O)C(=O)N[C@@H](Cc1c[nH]c2ccccc12)C(=O)N[C@@H](CC(C)C)C(=O)N[C@H](C(=O)N[C@@H](CCCNC(=N)N)C(=O)N[C@@H](CCC(N)=O)C(=O)N[C@@H](CCCNC(=N)N)C(=O)N[C@@H](Cc1ccc(O)cc1)C(N)=O)[C@@H](C)O)C(C)C"}, "B6": {"name": "Compound 150 (peptide)", "peptide": "Isovaleryl-APEK([AEEA-AEEA-γGlu-C18 diacid])PEEDAEPEELQKYYVSLRHYYNWLTRQRY-NH2", "SMILES": "CC(C)CC(=O)N[C@@H](C)C(=O)N1CCC[C@H]1C(=O)N[C@@H](CCC(=O)O)C(=O)N[C@@H](CCCCNC(=O)COCCOCCNC(=O)COCCOCCNC(=O)CC[C@H](NC(=O)CCCCCCCCCCCCCCCCC(=O)O)C(=O)O)C(=O)N1CCC[C@H]1C(=O)N[C@@H](CCC(=O)O)C(=O)N[C@@H](CCC(=O)O)C(=O)N[C@@H](CC(=O)O)C(=O)N[C@@H](C)C(=O)N[C@@H](CCC(=O)O)C(=O)N1CCC[C@H]1C(=O)N[C@@H](CCC(=O)O)C(=O)N[C@@H](CCC(=O)O)C(=O)N[C@@H](CC(C)C)C(=O)N[C@@H](CCC(N)=O)C(=O)N[C@@H](CCCCN)C(=O)N[C@@H](Cc1ccc(O)cc1)C(=O)N[C@@H](Cc1ccc(O)cc1)C(=O)N[C@H](C(=O)N[C@@H](CO)C(=O)N[C@@H](CC(C)C)C(=O)N[C@@H](CCCNC(=N)N)C(=O)N[C@@H](Cc1c[nH]cn1)C(=O)N[C@@H](Cc1ccc(O)cc1)C(=O)N[C@@H](Cc1ccc(O)cc1)C(=O)N[C@@H](CC(N)=O)C(=O)N[C@@H](Cc1c[nH]c2ccccc12)C(=O)N[C@@H](CC(C)C)C(=O)N[C@H](C(=O)N[C@@H](CCCNC(=N)N)C(=O)N[C@@H](CCC(N)=O)C(=O)N[C@@H](CCCNC(=N)N)C(=O)N[C@@H](Cc1ccc(O)cc1)C(N)=O)[C@@H](C)O)C(C)C"}}, "molecular_target": "T1, human neuropeptide Y2 receptor (human, UniProt P49146 1-381)", "T1 construct": "whole, on cells; also called hNPY2 receptor; hNPY2-R", "T1 sequence (looked up)": "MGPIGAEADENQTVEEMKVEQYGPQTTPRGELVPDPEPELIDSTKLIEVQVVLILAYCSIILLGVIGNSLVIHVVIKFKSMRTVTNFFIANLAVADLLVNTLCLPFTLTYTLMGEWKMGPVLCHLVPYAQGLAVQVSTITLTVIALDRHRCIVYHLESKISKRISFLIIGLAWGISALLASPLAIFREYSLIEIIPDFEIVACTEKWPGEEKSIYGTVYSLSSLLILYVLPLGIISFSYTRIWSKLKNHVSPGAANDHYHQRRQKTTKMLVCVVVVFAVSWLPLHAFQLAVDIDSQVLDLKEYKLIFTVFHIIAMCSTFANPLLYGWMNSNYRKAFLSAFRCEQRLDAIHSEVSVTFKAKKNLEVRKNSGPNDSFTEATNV", "experiment": "radioligand competition (125I-PYY(1-36)), hNPY2R membranes", "method_in_brief": "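Commercial human Y2 receptor membranes (0.5 μg protein/well) were incubated with peptide for 2 h at room temperature in 50 mM HEPES, 5 mM MgCl₂, 1 mM CaCl₂, pH 7.4, with 0.2% ovalbumin. Bound radioligand was separated on PEI-soaked GF/C filters and counted by scintillation, and IC₅₀ came from nonlinear sigmoidal regression.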", "note": "*1 amine or outer side, *2 acyl side, *3 side chain or, on linkers, in order; H or OH if unused. Side-chain parts run from the residue outwards. The star is where a group is joined. C18 diacid = O=C(O)CCCCCCCCCCCCCCCCC(=O)*; γGlu = O=C(O)[C@H](CCC(=O)[*:2])N[*:1]; Isovaleryl = CC(C)CC(=O)*; AEEA = NCCOCCOCC(=O)O", "data": [{"binder": "B1", "values": [{"measurement": "Ki", "value": 5.05, "unit": "nM"}]}, {"binder": "B2", "values": [{"measurement": "Ki", "value": 5.18, "unit": "nM"}]}, {"binder": "B3", "values": [{"measurement": "Ki", "value": 1.19, "unit": "nM"}]}, {"binder": "B4", "values": [{"measurement": "Ki", "value": 1.43, "unit": "nM"}]}, {"binder": "B5", "values": [{"measurement": "Ki", "value": 2.75, "unit": "nM"}]}, {"binder": "B6", "values": [{"measurement": "Ki", "value": 2.02, "unit": "nM"}]}]}
